Measured values as given in doi:10.1101/2022.06.29.498065v2.

Test system: Nc1ncnc2c1ncn2[C@@H]1O[C@H](COP(=O)(O)OP(=O)(O)OP(=O)(O)O)[C@@H](O)[C@H]1O
Experiment: purified protein
Conditions: pH 7.0; 30.0 °C

“KFDV NS5 (Kyasanur Forest disease virus)” gave a Km of 42.15 ± 5.81 µM.
